{"source": "patent US20250320277A1", "about": "(ALBERT EINSTEIN COLLEGE OF MEDICINE, published 2025)", "binders": {"B1": {"name": "DC2.M301 (antibody, V domains shown)", "VH": "QVQLVQSGAEVKKPGAAVKVSCKASGYTFSGYYIHWVRQAPGQGLEWMGWINPNSGGTDFAQKFQGRVTMTRDTSISTAYMELSRLRSDDTAVYLCSRDPGYTYGYPLGYWGQGTLVTVSS", "VL": "ETTLTQSPGTLSLSPGERATLSCRASQSVSSSYLAWYQQKPGQAPRLLIYGTSSRATGIPDRFSGRGSGTDFTLTISRLEPEDFAVYYCQQYGNSPPYTFGQGTKVDIK"}, "B2": {"name": "DC2.M17 (antibody, V domains shown)", "VH": "EVQLVESGSELKKPGASVRVSCEASGYSFTSHTIVWMRQAPGQGLECLGWINTNTGNPTYAQGFTGRFVFSLDTSVSTAYLQISSLKAADTAVYYCARVLKCLGGSASCSGHGYYDYGMAVWGQGTTVTVSS", "VL": "DIVLTQSPLSLPVTPGEPASISCRSSQSLLHSNGYNFLHWYLQKPGQSPQLLIYLGSIRASGVPDRFSGSGSGTDFTLKISRVEAEDVGVYYCMQALQTFMYTFGQGTKLEIK"}, "B3": {"name": "DC2.M287 (antibody, V domains shown)", "VH": "EVQLVESGGGLVQPGGSLRLSCAASGFTFRDYWMIWVRQTPGKGLEWVANINRNGNEKHYVDSLKGRFTISRDNTKNSLYLQVNGLSAEDTAVYYCVRDSSPSFGPGNYYDAFDIWGQGTTVTVSS", "VL": "DIRVTQSPSSLSASVGDRVTITCRASQDIRNEVGWYQQKPGQAPKVLIFAASTLQSGVPSRFRGSGSGTVFTLTISSLQPEDLATYYCLQDFNYPRTFGQGTKVDIK"}}, "key": {"[1]": {"molecular_target": "T1, MAYV p62-E1 (Mayaro virus (BeAr 20290))", "T1 construct": "extracellular domain", "assay": "BLI, […], global 1:1 fit; […]"}, "[2]": {"molecular_target": "T1, MAYV p62-E1"}, "[3]": {"molecular_target": "T1, MAYV p62-E1", "assay": "ELISA, plate-coated p62-E1, eight-point mAb dilution"}}}
{"binder": "B1", "values": [{"measurement": "Kd", "setting": "[1]", "result": 15, "unit": "nM"}, {"measurement": "koff", "setting": "[2]", "result": 0.0047, "unit": "s⁻¹"}, {"measurement": "kon", "setting": "[2]", "result": 300000, "unit": "M⁻¹ s⁻¹"}, {"measurement": "EC50", "setting": "[3]", "result": 4.6, "unit": "nM"}]}
{"binder": "B2", "values": [{"measurement": "EC50", "setting": "[3]", "result": 1.9, "unit": "nM"}]}
{"binder": "B3", "values": [{"measurement": "EC50", "setting": "[3]", "result": 220, "unit": "nM"}]}
